According to PMC12603323:

B1: SPOP (Speckle-type POZ protein): S58/59 A (protein)
parent chain: MSRVPSPPPPAEMSSGPVAESWCYTQIKVVKFSYMWTINNFSFCREEMGEVIKSSTFSSGANDKLKWCLRVNPKGLDEESKDYLSLYLLLVSCPKSEVRAKFKFSILNAKGEETKAMESQRAYRFVQGKDWGFKKFIRRDFLLDEANGLLPDDKLTLFCEVSVVQDSVNISGQNTMNMVKVPECRLADELGGLWENSRFTDCCLCVAGQEFQAHKAILAARSPVFSAMFEHEMEESKKNRVEINDVEPEVFKEMMCFIYTGKAPNLDKMADDLLAAADKYALERLKVMCEDALCSNLSVENAAEILILADLHSADQLKTQAVDFINYHASDVLETSGWKSMVVSHPHLVAEAYRSLASAQCPFLGPPRKRLKQS
B2: SPOP (Speckle-type POZ protein): OSMI-1 (protein)
parent chain: B1 parent chain

What was measured:
[1] = WB, CRC cells; settings: glycan lost; control: SPOP-WT
[2] = HA-Ub, MYC-β-catenin IP, 293T; settings: glycan lost; control: SPOP-WT
[3] = HA-Ub co-transfection, IP, 293T; settings: glycan lost; control: SPOP-WT
[4] = WB of SPOP, HCT116; settings: glycan lost; control: untreated cells

Protein	other: substrate β-catenin protein level [1]	other: substrate β-catenin ubiquitination [2]	other: ubiquitination of SPOP [3]	expression_or_secretion [4]
B1	decreases	increases	increases	
B2				increases
